This is an account of results in patent US20160251409A1.

For the assay, the target named is GPIIb/IIIa receptor on platelets (human) (UniProt P08514). Briefly: cell-based or functional assay.

Take Abciximab (ReoPro®) (Fab): the Platelet aggregation, 30 nM, SFLLRN 10 µM activated platelets is 60.7 % of control.
